Data reported in patent publication US20220204610A1, “PROTEIN BINDERS FOR IRHOM2” (NEW YORK SOCIETY FOR THE RELIEF OF THE RUPTURED AND …, priority 2019, published 2022).

System: LPS-induced release of endogenous TNFα from human THP-1 macrophage cells
Assay: ELISA-based TNFα release assay, IC50 determination (Example 12)
Assay type: cell-based
Conditions: titration 80.00 to 0.08 μg/ml final; LPS 50 ng/ml, 3 hours
Protocol: Expanding the functional analyses, ELISA-based TNFα release assays were performed to determine the half maximal inhibitory concentration (IC50) for the purified antibody 4H8-E3 of the invention on LPS-induced release of endogenous TNFα from human THP-1 macrophage cells.
In brief, on day 1, Nunc black MaxiSorp® 96-well plates (Thermo Fisher Scientific, USA) were coated overnight with 100 μl per well of mouse anti-human TNFα capture antibody (provided as part of the DuoSet ELISA kit) at 4 μg/ml TBS at 4° C. On day 2, the capture antibody solution was removed and MaxiSorp® plates were blocked with 300 μl per well of TBS, 1% BSA at room temperature for 3 hours. […] Using an infinite M1000 PRO (Tecan Group, Switzerland) microplate reader, the fluorescence of each well was collected at an excitation wavelength of 435 nm and an emission wavelength of 555 nm.

B1: 4H8-E3: Mouse IgM monoclonal antibody against the human iRhom2 juxtamembrane domain adjacent to TMD1; HC VD SEQ ID NO 33, LC VD SEQ ID NO 40 (antibody, V domains shown)
VH: EVQLQQSGPELVKPGASVKISCKASGYTFTDYYMNWVKQSHGKSLEWIGDINPNNGGTSYNQKFKGKATLTVDKSSNTAYMEFRSLTSEDSAVYYCARRGYYGVDYWGQGTTLTVSS
VL: NIVMTQSPKSMSMSVGERVTLNCKASENVGTYVSWYQQKPEQSPKLLIFGASNRYTGVPDRFIGSGFATDFTLTISSVQAEDLADYHCGQSYSYPYTFGGGTKLEIK
modifications: IgM constant regions; antibody sequence
  inhibition of TNFα release from THP-1 cells on titration: concentration-dependent inhibition
